How the values were obtained:
[1] = biological target: 狂犬病毒(CVS株); experiment: cell-based or functional assay
[2] = biological target: 狂犬疫苗 (rabies vaccine used as ELISA coating antigen); experiment: ELISA, rabies vaccine coated on plate, HRP goat anti-human IgG
[3] = biological target: 狂犬病毒G蛋白 (rabies virus G protein, RVG) (rabies virus (strain not stated))

B1: 全人源的单克隆的抗狂犬病毒中和抗体TRN006 (antibody, V domains shown)
VH: QVQLQESGPGLVKPSETLSLTCTVSGGSISSTTSYWGWIRQPPGKGLEWIGSIYYSGSTYYNPSLKSRVTISVDTSKNQFSLKLRSVTAADTAVYFCARHSVTAAYFNYWGQGTLVSVSS
VL: DIQMTQSPSSVSASVGDRVTITCRASEGISSWLAWYQQKPGRAPKVLIHGASSLQSGVPSRFSGSGSGADFTLSISSLQPEDFATYYCQQANSFPYTFGQGTKLEIKR
保护效价 (RFFIT, Reed & Muench法) [1]: 3040 IU/ml
antibody concentration at which binding is still seen [2]: 0.0024 µg/mL
dilution fold at which binding is still seen [2]: 50000 fold
fold of MFI over negative control antibody [3]: 300 fold
fold of MFI over standard serum [3]: 17 fold
